Values of other authors as cited in article PMC5075240.

Biological target: calmodulin (UniProt P0DP23)

- Kd: 50 nM
Substance: TRPV1 C-terminal fragment 767-801 (from UniProt O35433)
